Experimental data as given in PMC7154865, “High-Level Expression, Purification and Initial Characterization of Recombinant Arabidopsis Histidine Kinase AHK1” (Plants, 2020).
One block for each molecule: values may come before it.

What was measured:
[1] = target: AHP1 (Arabidopsis thaliana) (UniProt Q9ZNV9); conditions: cited from earlier work
[2] = target: ETR1 (Arabidopsis thaliana) (UniProt P49333); experiment: MST; conditions: cited from earlier work
[3] = target: ETR2 (Arabidopsis thaliana) (UniProt Q0WPQ2); experiment: MST; conditions: cited from earlier work
[4] = target: recombinant full-length Arabidopsis histidine kinase AHK1 (H10-TEV-AHK1), solubilized in FosCholine-16 (Arabidopsis thaliana) (UniProt Q9SXL4); experiment: MST; 40 nM AlexaFluor488-labelled AHK1 titrated with unlabelled AHK1 (12 uM to 0.4 nM); 50 mM Tris, 300 mM NaCl, 0.015% FosCholine-16, glycerol, pH 7.6; 40% MST power, 70% LED power; initial fluorescence evaluated; one-binding-site model; apparent Kd; monomer to dimer
[5] = target: T1, recombinant full-length Arabidopsis histidine kinase AHK1 (H10-TEV-AHK1), solubilized in FosCholine-16 (Arabidopsis thaliana, UniProt Q9SXL4 1-1207, AlexaFluor488-NHS label on the labelled copy (40 nM) used in MST; the titrated copy is unlabelled); experiment: MST; 40 nM AlexaFluor488-labelled AHK1 titrated with AHP2-GST (12.5 uM to 0.4 nM); HEPES/Tris 50 mM, 300 mM NaCl, FosCholine-16, 5% glycerol, pH 7.6; 40% MST power, 30% LED power; T-Jump evaluated; one-binding-site model; apparent Kd; seven measurements; conditions: both partners purified
T1 construct: Arabidopsis histidine kinase 1 (AHK1), Arabidopsis thaliana, full length; cloned into pET16b-H10-TEV with primers from the ATG to the stop codon; a TEV site lies between the tag and AHK1; No step that cleaves the tag is described; also called AHK1 sensor kinase; AHK1 osmosensor; source: E. coli BL21 (DE3) with pRARE, solubilized with 1% FosCholine-16, purified (Ni-NTA)
T1 sequence (looked up): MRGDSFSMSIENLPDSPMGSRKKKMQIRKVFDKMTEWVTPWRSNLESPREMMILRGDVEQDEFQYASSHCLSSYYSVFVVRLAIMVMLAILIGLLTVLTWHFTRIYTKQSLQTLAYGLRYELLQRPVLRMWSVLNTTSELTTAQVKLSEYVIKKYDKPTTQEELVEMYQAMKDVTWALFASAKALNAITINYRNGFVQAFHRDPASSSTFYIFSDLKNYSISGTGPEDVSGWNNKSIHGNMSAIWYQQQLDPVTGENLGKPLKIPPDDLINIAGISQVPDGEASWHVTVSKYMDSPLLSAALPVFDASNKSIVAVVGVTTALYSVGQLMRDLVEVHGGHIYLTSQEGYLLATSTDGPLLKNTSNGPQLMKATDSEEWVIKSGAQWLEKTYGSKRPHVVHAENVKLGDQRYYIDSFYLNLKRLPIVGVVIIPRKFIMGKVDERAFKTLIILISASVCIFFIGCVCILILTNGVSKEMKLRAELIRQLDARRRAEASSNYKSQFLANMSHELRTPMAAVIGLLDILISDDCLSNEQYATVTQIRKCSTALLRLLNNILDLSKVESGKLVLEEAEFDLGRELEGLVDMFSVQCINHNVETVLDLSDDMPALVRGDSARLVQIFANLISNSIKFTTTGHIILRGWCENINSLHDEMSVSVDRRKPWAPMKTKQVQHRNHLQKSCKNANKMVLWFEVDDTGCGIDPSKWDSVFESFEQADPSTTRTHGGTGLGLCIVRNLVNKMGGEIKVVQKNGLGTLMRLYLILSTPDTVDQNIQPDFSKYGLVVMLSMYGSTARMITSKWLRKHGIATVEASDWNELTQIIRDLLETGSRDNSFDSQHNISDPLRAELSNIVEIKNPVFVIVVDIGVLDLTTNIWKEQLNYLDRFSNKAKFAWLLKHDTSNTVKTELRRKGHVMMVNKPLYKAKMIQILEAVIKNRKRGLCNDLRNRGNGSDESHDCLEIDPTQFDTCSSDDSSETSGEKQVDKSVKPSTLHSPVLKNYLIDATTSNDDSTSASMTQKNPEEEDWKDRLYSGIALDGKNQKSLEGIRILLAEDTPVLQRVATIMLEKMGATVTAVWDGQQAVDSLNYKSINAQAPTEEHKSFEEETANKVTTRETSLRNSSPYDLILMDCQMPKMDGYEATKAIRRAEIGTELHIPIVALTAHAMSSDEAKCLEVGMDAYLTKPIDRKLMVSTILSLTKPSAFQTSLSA

AHP1 (Arabidopsis thaliana), sequence (Q9ZNV9 whole entry): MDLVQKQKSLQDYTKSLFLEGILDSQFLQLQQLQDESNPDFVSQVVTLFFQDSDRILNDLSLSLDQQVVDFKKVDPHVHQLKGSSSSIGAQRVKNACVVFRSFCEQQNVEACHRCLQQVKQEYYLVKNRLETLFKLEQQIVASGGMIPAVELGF

Kd [4]: 208 nM
Molecule: recombinant full-length Arabidopsis histidine kinase AHK1 (H10-TEV-AHK1), solubilized in FosCholine-16 (from UniProt Q9SXL4 1-1207) (receptor)

Kd [5]: 317 ± 62 nM
B1: GST-fusion protein of Arabidopsis histidine phosphotransfer protein 2 (AHP2) (natural protein, Arabidopsis thaliana, UniProt Q9ZNV8 1-156, looked up)
chain: MDALIAQLQRQFRDYTISLYQQGFLDDQFTELKKLQDDGSPDFVSEVLSLFFEDCVKLISNMARALDTTGTVDFSQVGASVHQLKGSSSSVGAKRVKTLCVSFKECCEAKNYEGCVRCLQQVDIEYKALKTKLQDMFNLEKQIIQAGGIVPQVDIN
notes: Arabidopsis histidine phosphotransfer protein 2 (AHP2), Arabidopsis thaliana; cDNA cloned into pGEX-6P-1; The apparent mass is 44 kDa; also called AHP2-GST; GST-tagged AHP2

The remaining lines, values behind:

Molecule: ETR1 (from UniProt P49333)
Kd [1]: 1500 nM
Kd [2]: 326 nM

Molecule: ETR2 (from UniProt Q0WPQ2)
Kd [3]: 96 nM
